Measured values reported in patent publication US20220195404.

Biological target: TevCas9 H557A (I-TevI domain-linker-SaCas9 H557A nickase) (Enterobacteria phage T4 / Staphylococcus aureus) (UniProt P13299+J7RUA5)
Experiment: cleavage_in_vitro

Substance	binding signal (fold rate vs wild-type EGFR) (faster cleavage of exon 19 deletion, PAM not stated)	relative cleavage rate (fold rate (reference)) (4-fold slower than exon 19 deletion substrate)
EGFR guide RNA ; EGFR exon 19 deletion DNA substrate	4	
EGFR guide RNA ; EGFR wild-type DNA substrate		1
